The target in test [1] is T1, mouse CD98 (mouse, UniProt P10852 1-526, limits assumed).
T1 construct: also called mCD98
T1 sequence (looked up): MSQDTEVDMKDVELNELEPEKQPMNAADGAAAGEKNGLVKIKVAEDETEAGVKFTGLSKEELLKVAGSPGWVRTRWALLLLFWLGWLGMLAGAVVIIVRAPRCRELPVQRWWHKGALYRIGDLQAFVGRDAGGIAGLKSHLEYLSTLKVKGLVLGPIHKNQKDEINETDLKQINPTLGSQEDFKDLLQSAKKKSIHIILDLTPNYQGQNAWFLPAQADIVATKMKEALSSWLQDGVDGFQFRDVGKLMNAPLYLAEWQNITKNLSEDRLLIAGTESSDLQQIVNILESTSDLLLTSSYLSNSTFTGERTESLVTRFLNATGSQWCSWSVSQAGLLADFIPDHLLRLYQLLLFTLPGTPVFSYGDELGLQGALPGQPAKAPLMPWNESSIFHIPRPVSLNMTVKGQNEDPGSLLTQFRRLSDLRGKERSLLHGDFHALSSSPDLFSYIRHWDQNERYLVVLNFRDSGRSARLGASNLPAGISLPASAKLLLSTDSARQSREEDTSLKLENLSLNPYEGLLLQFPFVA
Briefly: not described at this place.

The target in test [2] is T2, human LAT1-EGFP on L929 cells (human, UniProt Q01650 1-507).
T2 construct: L929 cells transfected with pEF1/hLAT1-EGFP alone; also called hLAT1-E; hLAT1-EGFP; not shown: EGFP and the short vector-encoded linker (pEGFP-N1) at the C terminus of hLAT1
Kind of test: FACS on hLAT1-E-expressing L929 cells.

Test [3] deals with T3, human CD98/human LAT1-EGFP complex on transfected CT26 or L929 cells (human, UniProt P08195 1-529; Q01650 1-507, CD98 and LAT1 are linked by a disulfide bond on the cell membrane).
T3 construct: also called hCD98/hLAT1-E; hCD98/hLAT1; not shown: EGFP and the short vector-encoded linker (pEGFP-N1) fused to the intracellular C terminus of hLAT1
Briefly: FACS, antibody 5 µg/mL, transfected CT26 or L929 cells. On the technique in general: A flow cytometer gives signals particle by particle.

The target of test [4] is T4, human CD98 (human, UniProt P08195 2-529).
T4 construct: also called hCD98; 4F2
T4 sequence: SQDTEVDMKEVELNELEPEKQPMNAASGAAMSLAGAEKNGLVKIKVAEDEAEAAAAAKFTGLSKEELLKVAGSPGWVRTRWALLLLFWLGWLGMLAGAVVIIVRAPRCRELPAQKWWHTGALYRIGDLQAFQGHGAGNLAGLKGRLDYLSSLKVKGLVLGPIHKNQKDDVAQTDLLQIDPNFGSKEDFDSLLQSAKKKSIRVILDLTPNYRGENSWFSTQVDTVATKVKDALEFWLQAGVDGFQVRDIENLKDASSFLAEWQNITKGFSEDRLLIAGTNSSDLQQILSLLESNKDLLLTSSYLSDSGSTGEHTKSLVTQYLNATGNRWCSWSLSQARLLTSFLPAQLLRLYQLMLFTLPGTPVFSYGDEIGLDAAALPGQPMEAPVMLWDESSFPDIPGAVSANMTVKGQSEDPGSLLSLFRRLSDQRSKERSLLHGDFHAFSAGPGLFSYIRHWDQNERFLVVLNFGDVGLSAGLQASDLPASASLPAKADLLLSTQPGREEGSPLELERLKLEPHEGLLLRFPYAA
Kind of test: FACS, antibody 5 µg/mL, hCD98-expressing L929 cells.

Test [5] concerns the target T5, CD98 on human peripheral blood monocytes, PHA-activated T cells and activated B cells (human, UniProt P08195 2-529).
T5 sequence: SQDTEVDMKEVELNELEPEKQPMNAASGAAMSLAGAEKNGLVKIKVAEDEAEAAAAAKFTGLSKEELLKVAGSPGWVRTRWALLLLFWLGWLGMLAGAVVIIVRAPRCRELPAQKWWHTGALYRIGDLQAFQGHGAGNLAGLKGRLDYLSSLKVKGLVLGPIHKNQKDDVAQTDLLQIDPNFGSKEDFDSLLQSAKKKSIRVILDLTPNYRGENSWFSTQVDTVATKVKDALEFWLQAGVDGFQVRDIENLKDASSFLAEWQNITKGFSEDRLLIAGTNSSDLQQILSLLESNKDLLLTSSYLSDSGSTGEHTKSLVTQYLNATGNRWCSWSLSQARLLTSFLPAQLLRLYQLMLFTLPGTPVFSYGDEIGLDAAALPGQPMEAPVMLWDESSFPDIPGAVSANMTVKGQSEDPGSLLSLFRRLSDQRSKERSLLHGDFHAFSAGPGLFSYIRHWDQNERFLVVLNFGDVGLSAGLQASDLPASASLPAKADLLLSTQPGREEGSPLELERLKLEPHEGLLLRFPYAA
Kind of test: FACS with FITC-labeled antibody 5 µg/mL on human peripheral blood cells.

Test [6] addresses T6, CD98 on normal human aortic endothelial cells (HAEC) (human, UniProt P08195 2-529).
T6 sequence: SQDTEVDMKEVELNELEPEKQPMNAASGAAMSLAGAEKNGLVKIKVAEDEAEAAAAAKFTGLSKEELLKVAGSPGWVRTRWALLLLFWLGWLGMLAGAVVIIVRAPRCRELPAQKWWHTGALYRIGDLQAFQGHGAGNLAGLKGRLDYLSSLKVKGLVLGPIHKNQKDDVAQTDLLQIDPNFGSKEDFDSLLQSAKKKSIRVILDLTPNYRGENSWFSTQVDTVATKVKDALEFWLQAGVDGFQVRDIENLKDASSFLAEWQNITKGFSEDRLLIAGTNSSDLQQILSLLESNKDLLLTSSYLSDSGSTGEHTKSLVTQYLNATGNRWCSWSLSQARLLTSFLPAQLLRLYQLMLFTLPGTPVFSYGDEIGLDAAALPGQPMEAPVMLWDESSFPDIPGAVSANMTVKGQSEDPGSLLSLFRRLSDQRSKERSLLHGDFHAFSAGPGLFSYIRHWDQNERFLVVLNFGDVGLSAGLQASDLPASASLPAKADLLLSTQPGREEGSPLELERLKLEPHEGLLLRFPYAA
Kind of test: FACS on cultured HAEC, antibody 3.2 ng/mL to 50 µg/mL.

T2 sequence (Q01650 whole entry): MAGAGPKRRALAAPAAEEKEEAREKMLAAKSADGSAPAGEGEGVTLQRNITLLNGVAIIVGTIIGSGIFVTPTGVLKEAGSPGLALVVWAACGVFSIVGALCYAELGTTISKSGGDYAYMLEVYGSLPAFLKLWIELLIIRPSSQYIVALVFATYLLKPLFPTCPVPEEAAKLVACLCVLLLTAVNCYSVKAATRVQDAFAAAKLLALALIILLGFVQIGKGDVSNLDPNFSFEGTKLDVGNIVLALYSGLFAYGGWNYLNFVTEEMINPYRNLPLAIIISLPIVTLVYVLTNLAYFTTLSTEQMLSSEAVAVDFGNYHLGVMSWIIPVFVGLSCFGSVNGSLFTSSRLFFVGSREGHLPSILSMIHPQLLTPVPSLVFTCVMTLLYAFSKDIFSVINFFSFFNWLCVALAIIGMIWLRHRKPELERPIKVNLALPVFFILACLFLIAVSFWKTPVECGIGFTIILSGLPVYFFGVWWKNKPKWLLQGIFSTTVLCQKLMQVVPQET
T3 sequence (Q01650 whole entry, the tested form may be a part, one chain of several): as the sequence (Q01650 whole entry) above

B1: human anti-CD98 monoclonal antibody C2IgG1 (antibody, V domains shown)
VH: QLQLQESGPGLVKPSETLSLTCTVSGGSISSSSYYWGWIRQPPGKGLEWIGSIYYSGSTYYNPSLKSRVTISVDTSKSQFFLKLSSVTAADTAVYYCARQGTGLALFDYWGQGTLVTVSS
VL: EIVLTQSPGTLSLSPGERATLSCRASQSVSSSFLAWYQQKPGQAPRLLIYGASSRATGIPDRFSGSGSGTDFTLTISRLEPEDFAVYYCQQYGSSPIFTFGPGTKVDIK
notes: Recombinant IgG1/kappa form of the C2 hybridoma antibody (hybridoma C2 is IgM); The entries begin with residues translated from the cloning site (STT, RSLT) and the leader peptide; also called 4-35-14
B1: the binding result in test [1] is “no binding”; in test [2], “no binding (tested: 5 µg/mL)”.

B2: human anti-CD98 monoclonal antibody 3-69-6 (antibody, V domains shown)
VH: QVQLVQSGAEVKKPGASVKVSCKASGYTFTSYGISWMRQAPGQGLEWMGWISAYNGNTNYVQKFQDRVTMTRDTSTSTAYMELRSLRSDDTAVYYCARDRGSNWYGWFDPWGQGTLVTVSS
VL: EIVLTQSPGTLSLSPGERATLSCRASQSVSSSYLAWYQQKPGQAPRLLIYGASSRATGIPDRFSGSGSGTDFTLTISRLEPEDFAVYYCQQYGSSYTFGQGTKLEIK
notes: Recombinant human IgG1/kappa (N5KG1-Val Lark vector); Entries begin with residues translated from the cloning site (RRPT, RSLT) and the leader peptide; also called 3-69-6IgG1
As for B2, the binding result was “no binding” in test [1] and “no binding (tested: 5 µg/mL)” in test [2].

B3: human anti-CD98 monoclonal antibody K3 (antibody, V domains shown)
VH: EVQLVQSGAEVKKPGESLKISCKGSGYRFTDYWIGWVRQMPGKGLEWMGIFYPGDSDARYSPSFQGQVTISADKSINTAYLQWSSLKASDTAMYYCARRRDIVGGTDYWGQGTLVTVSS
VL: EIVLTQSPATLSLSPGERATLSCRASQSVSSYLDWYQQKPGQAPRLLIYDASSRATGIPARFSGSGSGTDFTLTISSLEPEDFAVYYCQQRSNWITFGQGTRLEIK
notes: Recombinant human IgG1/kappa (variable regions put into the N5KG1-Val Lark vector); The entries begin with the leader peptide; FITC-labelled in some assays; also called 4-32-9; K3IgG1
For the molecule B3, the binding result in test [1] was “no binding”; in test [3], “binds”; in test [4], “binds”; in test [5], “binds”; in test [2], “no binding (tested: 5 µg/mL)”; in test [6], “binds”.

B4: human anti-CD98 monoclonal antibody 1-40-1 (antibody, V domains shown)
VH: EVQLVESGGGVVRPGGSLRLSCAASGFTFDDYGMTWVRQAPGKGLEWVSTISWNGGGTGYADSVKGRFTISRDNAKNSLYLQMNSLRAEDTALYYCAGYCIITGCYADYWGQGTLVTVSS
VL: EIVLTQSPATLSLSPGERATLSCRASQSVSSYLAWYQQKPGQAPRLLIYDASNRATGIPARFSGSGSGTDFTLTISSLEPEDFAVYYCQQRSNWWTFGQGTKVEIK
notes: Recombinant human IgG1/kappa (N5KG1-Val Lark vector); Entries begin with the leader peptide; also called 1-40-1IgG1
Take B4: the binding result in test [1] is recorded as “no binding”; in test [3], “binds”; in test [4] it was “binds”; in test [5], “binds”; in test [2], “no binding (tested: 5 µg/mL)”; in test [6], “binds”.

Values taken from US20150307621A1 (Kyowa Kirin, published 2015).
